Measured values as given in article PMC9352680, “A comprehensive thermodynamic model for RNA binding by the Saccharomyces cerevisiae Pumilio protein PUF4”.

T1: PUF4 RNA-binding domain (Saccharomyces cerevisiae, UniProt P25339 537-888)
T1 sequence: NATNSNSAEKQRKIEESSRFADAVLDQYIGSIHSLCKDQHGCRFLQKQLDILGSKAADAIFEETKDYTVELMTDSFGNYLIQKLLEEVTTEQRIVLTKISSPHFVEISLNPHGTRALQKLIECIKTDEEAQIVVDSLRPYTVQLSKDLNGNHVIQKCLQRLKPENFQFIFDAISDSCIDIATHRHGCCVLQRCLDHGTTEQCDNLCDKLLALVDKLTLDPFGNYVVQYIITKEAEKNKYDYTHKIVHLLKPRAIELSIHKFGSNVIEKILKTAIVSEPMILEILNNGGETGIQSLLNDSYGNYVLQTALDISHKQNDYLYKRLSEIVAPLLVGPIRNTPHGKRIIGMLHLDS


What follows are binders tested against T1, PUF4 RNA-binding domain (assay: Mg; RNA-MaP; 20 mM Na-HEPES pH 7.4, 30 mM KOAc, 0.75 mM MgCl2, 0.1% Tween-20, 5% glycerol, 0.1 mg/mL BSA, 2 mM DTT; 25 C; 0.0125-409.6 nM protein). Settings: tags: N-His6-TEV cleaved; C-SNAP kept, Cy3B-labelled; label: tethered on chip by stalled RNA polymerase.

Binder | Kd [nM]
Ic_S2_P3E.1_K3.1_C3.1_H3.1_A3.1_[T5C]_[A6T]_F3.1_[A8G]_T3.1 (ssRNA) RNA: UUUGAUUAAUAUGAUAUCGUUCUUUCUUGUACUUGUUCUUUCUCGAUAUCAUAUUAAUCUUU | 107
Ic_S2_P3E.1_K3.1_C3.1_H3.1_A3.1_[A6C]_F3.1_[T7C]_[A8T]_T3.1 (ssRNA) RNA: UUUGAUUAAUAUGAUAUCGUUCUUUCUUGUAUCCUUUCUUUCUCGAUAUCAUAUUAAUCUUU | 13.7
Ic_S2_P3E.1_K3.1_C3.1_H3.1_A3.1_[T5C]_F3.1_[T7G]_[A8C]_T3.1 (ssRNA) RNA: UUUGAUUAAUAUGAUAUCGUUCUUUCUUGUACAGCUUCUUUCUCGAUAUCAUAUUAAUCUUU | 35.4
Ic_S2_P3E.1_K3.1_C3.1_H3.1_A3.1_F3.1_T3.1 (ssRNA) RNA: UUUGAUUAAUAUGAUAUCGUUCUUUCUUGUAUAUAUUCUUUCUCGAUAUCAUAUUAAUCUUU | 1.38
Ic_S2_P3E.1_K3.1_C3.1_H3.1_A3.1_[T5C]_F3.1_[T7G]_[A8T]_T3.1 (ssRNA) RNA: UUUGAUUAAUAUGAUAUCGUUCUUUCUUGUACAGUUUCUUUCUCGAUAUCAUAUUAAUCUUU | 13.1
Ic_S2_P3E.1_K3.1_C3.1_H3.1_A3.1_[A6C]_F3.1_[T7G]_[A8T]_T3.1 (ssRNA) RNA: UUUGAUUAAUAUGAUAUCGUUCUUUCUUGUAUCGUUUCUUUCUCGAUAUCAUAUUAAUCUUU | 114
Ic_S2_P3E.1_K3.1_C3.1_H3.1_A3.1_[T5A]_[A6T]_F3.1_[T7A]_[A8G]_T3.1 (ssRNA) RNA: UUUGAUUAAUAUGAUAUCGUUCUUUCUUGUAAUAGUUCUUUCUCGAUAUCAUAUUAAUCUUU | 1530
Ic_S2_P3E.1_K3.1_C3.1_H3.1_A3.1_[T5C]_F3.1_[T7A]_[A8G]_T3.1 (ssRNA) RNA: UUUGAUUAAUAUGAUAUCGUUCUUUCUUGUACAAGUUCUUUCUCGAUAUCAUAUUAAUCUUU | 1630
Ic_S2_P3E.1_K3.1_C3.1_H3.1_A3.1_[T5A]_F3.1_[T7A]_[A8C]_T3.1 (ssRNA) RNA: UUUGAUUAAUAUGAUAUCGUUCUUUCUUGUAAAACUUCUUUCUCGAUAUCAUAUUAAUCUUU | 621
Ic_S2_P3E.1_K3.1_C3.1_H3.1_A3.1_[T5A]_[A6T]_F3.1_[A8T]_T3.1 (ssRNA) RNA: UUUGAUUAAUAUGAUAUCGUUCUUUCUUGUAAUUUUUCUUUCUCGAUAUCAUAUUAAUCUUU | 19.2
Ic_S2_P3E.1_K3.1_C3.1_H3.1_A3.1_[T5A]_[A6T]_F3.1_[T7G]_[A8T]_T3.1 (ssRNA) RNA: UUUGAUUAAUAUGAUAUCGUUCUUUCUUGUAAUGUUUCUUUCUCGAUAUCAUAUUAAUCUUU | 174
Ic_S2_P3E.1_K3.1_C3.1_H3.1_A3.1_[A6C]_F3.1_[T7A]_[A8G]_T3.1 (ssRNA) RNA: UUUGAUUAAUAUGAUAUCGUUCUUUCUUGUAUCAGUUCUUUCUCGAUAUCAUAUUAAUCUUU | 208
Ic_S2_P3E.1_K3.1_C3.1_H3.1_A3.1_[T5A]_[A6C]_F3.1_[T7C]_[A8T]_T3.1 (ssRNA) RNA: UUUGAUUAAUAUGAUAUCGUUCUUUCUUGUAACCUUUCUUUCUCGAUAUCAUAUUAAUCUUU | 23.5
Ic_S2_P3E.1_K3.1_C3.1_H3.1_A3.1_[A6G]_F3.1_[T7G]_[A8C]_T3.1 (ssRNA) RNA: UUUGAUUAAUAUGAUAUCGUUCUUUCUUGUAUGGCUUCUUUCUCGAUAUCAUAUUAAUCUUU | 950
Ic_S2_P3E.1_K3.1_C3.1_H3.1_A3.1_[A6T]_F3.1_[T7C]_[A8C]_T3.1 (ssRNA) RNA: UUUGAUUAAUAUGAUAUCGUUCUUUCUUGUAUUCCUUCUUUCUCGAUAUCAUAUUAAUCUUU | 76
Ic_S2_P3E.1_K3.1_C3.1_H3.1_A3.1_[A6C]_F3.1_[T7C]_[A8C]_T3.1 (ssRNA) RNA: UUUGAUUAAUAUGAUAUCGUUCUUUCUUGUAUCCCUUCUUUCUCGAUAUCAUAUUAAUCUUU | 132
Ic_S2_P3E.1_K3.1_C3.1_H3.1_A3.1_[T5A]_[A6T]_F3.1_[T7A]_[A8C]_T3.1 (ssRNA) RNA: UUUGAUUAAUAUGAUAUCGUUCUUUCUUGUAAUACUUCUUUCUCGAUAUCAUAUUAAUCUUU | 158
Ic_S2_P3E.1_K3.1_C3.1_H3.1_A3.1_[A6T]_F3.1_[T7C]_[A8T]_T3.1 (ssRNA) RNA: UUUGAUUAAUAUGAUAUCGUUCUUUCUUGUAUUCUUUCUUUCUCGAUAUCAUAUUAAUCUUU | 11.9
Ic_S2_P3E.1_K3.1_C3.1_H3.1_A3.1_[A6T]_F3.1_[T7G]_[A8C]_T3.1 (ssRNA) RNA: UUUGAUUAAUAUGAUAUCGUUCUUUCUUGUAUUGCUUCUUUCUCGAUAUCAUAUUAAUCUUU | 442
Ic_S2_P3E.1_K3.1_C3.1_H3.1_A3.1_[T5C]_[A6T]_F3.1_[A8T]_T3.1 (ssRNA) RNA: UUUGAUUAAUAUGAUAUCGUUCUUUCUUGUACUUUUUCUUUCUCGAUAUCAUAUUAAUCUUU | 9.88
Ic_S2_P3E.1_K3.1_C3.1_H3.1_A3.1_[T5A]_[A6T]_F3.1_[A8C]_T3.1 (ssRNA) RNA: UUUGAUUAAUAUGAUAUCGUUCUUUCUUGUAAUUCUUCUUUCUCGAUAUCAUAUUAAUCUUU | 120
Ic_S2_P3E.1_K3.1_C3.1_H3.1_A3.1_[T5C]_F3.1_[T7C]_[A8T]_T3.1 (ssRNA) RNA: UUUGAUUAAUAUGAUAUCGUUCUUUCUUGUACACUUUCUUUCUCGAUAUCAUAUUAAUCUUU | 2.64

Binder | Kd [nM]
Ic_S2_P3E.1_K3.1_C3.1_H3.1_A3.1_[A6C]_F3.1_[T7A]_[A8T]_T3.1 (ssRNA) RNA: UUUGAUUAAUAUGAUAUCGUUCUUUCUUGUAUCAUUUCUUUCUCGAUAUCAUAUUAAUCUUU | 4.83
Ic_S2_P3E.1_K3.1_C3.1_H3.1_A3.1_[T5C]_F3.1_[T7C]_[A8G]_T3.1 (ssRNA) RNA: UUUGAUUAAUAUGAUAUCGUUCUUUCUUGUACACGUUCUUUCUCGAUAUCAUAUUAAUCUUU | 31.5
Ic_S2_P3E.1_K3.1_C3.1_H3.1_A3.1_[T5A]_[A6C]_F3.1_[T7C]_[A8G]_T3.1 (ssRNA) RNA: UUUGAUUAAUAUGAUAUCGUUCUUUCUUGUAACCGUUCUUUCUCGAUAUCAUAUUAAUCUUU | 626
Ic_S2_P3E.1_K3.1_C3.1_H3.1_A3.1_[A6G]_F3.1_[T7C]_[A8C]_T3.1 (ssRNA) RNA: UUUGAUUAAUAUGAUAUCGUUCUUUCUUGUAUGCCUUCUUUCUCGAUAUCAUAUUAAUCUUU | 585
Ic_S2_P3E.1_K3.1_C3.1_H3.1_A3.1_[T5C]_[A6T]_F3.1_[A8C]_T3.1 (ssRNA) RNA: UUUGAUUAAUAUGAUAUCGUUCUUUCUUGUACUUCUUCUUUCUCGAUAUCAUAUUAAUCUUU | 36.4
Ic_S2_P3E.1_K3.1_C3.1_H3.1_A3.1_[T5A]_F3.1_[T7C]_[A8T]_T3.1 (ssRNA) RNA: UUUGAUUAAUAUGAUAUCGUUCUUUCUUGUAAACUUUCUUUCUCGAUAUCAUAUUAAUCUUU | 19.9
Ic_S2_P3E.1_K3.1_C3.1_H3.1_A3.1_[T5C]_F3.1_[T7A]_[A8C]_T3.1 (ssRNA) RNA: UUUGAUUAAUAUGAUAUCGUUCUUUCUUGUACAACUUCUUUCUCGAUAUCAUAUUAAUCUUU | 23.8
Ic_S2_P3E.1_K3.1_C3.1_H3.1_A3.1_[T5A]_[A6C]_F3.1_[A8G]_T3.1 (ssRNA) RNA: UUUGAUUAAUAUGAUAUCGUUCUUUCUUGUAACUGUUCUUUCUCGAUAUCAUAUUAAUCUUU | 101
Ic_S2_P3E.1_K3.1_C3.1_H3.1_A3.1_[T5A]_[A6T]_F3.1_[T7C]_[A8T]_T3.1 (ssRNA) RNA: UUUGAUUAAUAUGAUAUCGUUCUUUCUUGUAAUCUUUCUUUCUCGAUAUCAUAUUAAUCUUU | 22.5
Ic_S2_P3E.1_K3.1_C3.1_H3.1_A3.1_[T5A]_[A6C]_F3.1_[T7A]_[A8G]_T3.1 (ssRNA) RNA: UUUGAUUAAUAUGAUAUCGUUCUUUCUUGUAACAGUUCUUUCUCGAUAUCAUAUUAAUCUUU | 947
Ic_S2_P3E.1_K3.1_C3.1_H3.1_A3.1_[T5A]_[A6T]_F3.1_[T7A]_[A8T]_T3.1 (ssRNA) RNA: UUUGAUUAAUAUGAUAUCGUUCUUUCUUGUAAUAUUUCUUUCUCGAUAUCAUAUUAAUCUUU | 11.6
Ic_S2_P3E.1_K3.1_C3.1_H3.1_A3.1_[T5A]_[A6C]_F3.1_[T7A]_[A8T]_T3.1 (ssRNA) RNA: UUUGAUUAAUAUGAUAUCGUUCUUUCUUGUAACAUUUCUUUCUCGAUAUCAUAUUAAUCUUU | 8.69
Ic_S2_P3E.1_K3.1_C3.1_H3.1_A3.1_[T5A]_[A6C]_F3.1_[T7G]_[A8G]_T3.1 (ssRNA) RNA: UUUGAUUAAUAUGAUAUCGUUCUUUCUUGUAACGGUUCUUUCUCGAUAUCAUAUUAAUCUUU | 984
Ic_S2_P3E.1_K3.1_C3.1_H3.1_A3.1_[T5C]_F3.1_[T7C]_[A8C]_T3.1 (ssRNA) RNA: UUUGAUUAAUAUGAUAUCGUUCUUUCUUGUACACCUUCUUUCUCGAUAUCAUAUUAAUCUUU | 17.3
Ic_S2_P3E.1_K3.1_C3.1_H3.1_A3.1_[A6T]_F3.1_[T7C]_[A8G]_T3.1 (ssRNA) RNA: UUUGAUUAAUAUGAUAUCGUUCUUUCUUGUAUUCGUUCUUUCUCGAUAUCAUAUUAAUCUUU | 234
UCUCUUUUUAUGUAUCUCUU (ssRNA) [Ib_S1_P3E.1_K3.1_C3.1_H3.1_[G2T]_A3.1_[A6G]_F3.1_T3.1] | 354
UCUCUUUGUAUAUUCUCUCUU (ssRNA) [Ic_S1_P4E.1_K4.1_C4.1_H4.1_A4.1_F4.1_[A9C]_T4.1] | 6.17
UCUCUUUAUAUGUAUCUCUU (ssRNA) [Ib_S1_P3E.1_K3.1_C3.1_H3.1_[G2A]_A3.1_[A6G]_F3.1_T3.1] | 384
Ic_S2_P4E.1_K4.1_C4.1_H4.1_A4.1_[T5G]_[A6C]_[T7G]_F4.1_[T8G]_[A9T]_T4.1 (ssRNA) RNA: UUUGAUUAAUAUGAUAUCGUUCUUUCUUGUAGCGGUUUCUUUCUCGAUAUCAUAUUAAUCUUU | 808
Ic_S2_P4E.1_K4.1_C4.1_H4.1_A4.1_[T5G]_[A6C]_[T7G]_F4.1_[T8C]_[A9G]_T4.1 (ssRNA) RNA: UUUGAUUAAUAUGAUAUCGUUCUUUCUUGUAGCGCGUUCUUUCUCGAUAUCAUAUUAAUCUUU | > 2300
UCUCUUUUUAUUUAUCUCUU (ssRNA) [Ib_S1_P3E.1_K3.1_C3.1_H3.1_[G2T]_A3.1_[A6T]_F3.1_T3.1] | > 2300
UCUCUUUUUAUCUAUCUCUU (ssRNA) [Ib_S1_P3E.1_K3.1_C3.1_H3.1_[G2T]_A3.1_[A6C]_F3.1_T3.1] | > 2300
